# Tests used:
# [1] = target: human Heat Shock Factor 1 (HSF1) tagged with GFP (Homo sapiens; Aequorea victoria) (UniProt Q00613); experiment: AptA-MS: GFP-aptamer pull-down of HSF1-GFP from HCT116 lysate, mass spectrometry, SAINT probability score of interaction
# [2] = target: human Heat Shock Factor 1 (HSF1) tagged with GFP (Homo sapiens; Aequorea victoria) (UniProt Q00613); experiment: AptA-MS of HSF1-GFP from non-heat-shocked HCT116 cells, SAINT probability score of interaction
# [3] = target: human Heat Shock Factor 1 (HSF1) tagged with GFP (Homo sapiens; Aequorea victoria) (UniProt Q00613); experiment: AptA-MS of HSF1-GFP from heat-shocked HCT116 cells, SAINT probability score of interaction
# Sequence of UniProt Q00613 (Q00613 whole entry): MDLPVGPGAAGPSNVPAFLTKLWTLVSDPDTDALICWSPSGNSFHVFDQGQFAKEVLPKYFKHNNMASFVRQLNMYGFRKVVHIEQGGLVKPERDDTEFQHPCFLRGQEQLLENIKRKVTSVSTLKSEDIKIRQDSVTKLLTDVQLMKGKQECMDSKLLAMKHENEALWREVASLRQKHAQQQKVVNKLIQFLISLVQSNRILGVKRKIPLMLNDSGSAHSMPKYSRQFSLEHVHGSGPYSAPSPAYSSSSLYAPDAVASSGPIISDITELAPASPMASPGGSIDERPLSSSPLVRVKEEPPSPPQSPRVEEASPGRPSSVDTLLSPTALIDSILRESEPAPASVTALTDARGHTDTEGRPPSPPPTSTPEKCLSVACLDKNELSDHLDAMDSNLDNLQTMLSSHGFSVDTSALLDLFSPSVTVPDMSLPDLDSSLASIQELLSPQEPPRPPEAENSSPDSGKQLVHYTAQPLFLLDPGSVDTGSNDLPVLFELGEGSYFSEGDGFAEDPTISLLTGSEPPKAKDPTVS
SAINT score [1],SAINT score [3],Substance,further results
0.69,,Elongation Factor 1-alpha 1 (from UniProt P68104 2-462),
0.66,,Elongation Factor 1-alpha 2 (from UniProt Q05639 2-463),
,,HSF2 (from UniProt Q03933 1-536),SAINT score [2]: 0.78
,0.98,Thymidylate Kinase (from UniProt P23919 2-212) (enzyme),
,0.92,translation elongation factor HBS1 (from UniProt Q9Y450 1-684),
